This note sets out measurements from the RNAGym collection of RNA variant scans (doi:10.1093/molbev/msab373).

B1: Azoarcus group I ribozyme (parent)
chain: GUGCCUUGCGCCGGGAAACCACGCAAGGGAUGGUGUCAAAUUCGGCGAAACCUAAGCGCCCGCCCGGGCGUAUGGCAACGCCGAGCCAAGCUUCGGCGCCUGCGCCGAUGAAGGUGUAGAGACUAGACGGCACCCACCUAAGGCAAACGCUAUGGUGAAGGCAUAGUCCAGGGAGUGGCGAAAGUCACACAAACCGG

The variants in this data set derive from B1. In words: reverse-splicing fitness (ratio to wild type); higher = more active; in vitro selection; Mg2+ level not given. In a few lines: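 An in vitro group I ribozyme library with randomized positions was T7-transcribed and gel-purified. In triplicate, 10 pmol RNA in EPPS pH 7.5 was reacted with 50 pmoles of a 30-nt RNA substrate for 1 h at 37 °C across several added MgCl2 levels (1–48 mM), then stopped with EDTA. Products were reverse transcribed from a substrate-complementary primer, PCR-amplified and sequenced (HiSeq 4000). Fitness is a variant's read proportion after selection over that before, normalised to wild type.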
With C82U A120U A145C C150G C169A U176C, the reverse-splicing fitness is 0.00196.
The figure for C82U A120U A145C C150G C169A U176G is 0.00188; for C82U A120U A145C C150G C169A U176A it is 0.00201; for C82U A120U A145U C150A C169U U176A it is 0.0025.
Regarding C82U A120U A145U C150A C169U U176G, the reverse-splicing fitness is 0.00172.
The figure for C82U A120U A145U C150A C169U U176C is 0.002; for C82U A120U A145C C150A U176G it is 0.00282; for C82U A120U A145C C150A U176C it is 0.00532.
The figure for C82U A120U A145C C150A U176A is 0.00377; for C82U A120U A145C C150G C169A it is 0.00211; for C82U A120U A145C C150G C169G it is 0.00257.
With C82U A120U A145C C150G C169U the figure was 0.00275.
Regarding C82U A120U A145C U176G, the reverse-splicing fitness stood at 0.011.
The figure for C82U A120U A145C U176A is 0.0354.
The figure for C82U A120U A145C U176C is 0.0503; for C82U A120U A145G C150A C169U U176A it is 0.0038.
The figure for C82U A120U A145G C150A C169U U176G is 0.00199; for C82U A120U A145G C150A C169U U176C it is 0.00329; for C82U A120U A145C C169G it is 0.00426.
With C82U A120U A145C C169A, the reverse-splicing fitness is 0.00174.
In the case of C82U A120U A145C C169U, the reverse-splicing fitness worked out at 0.00535.
In the case of C82U A120U A145C C150U C169G, the reverse-splicing fitness is 0.00257.
Regarding C82U A120U A145C C150U C169U, the reverse-splicing fitness is 0.00331.
With C82U A120U A145C C150U C169A the figure was 0.00167.
With C82U A120U A145G C150G C169G U176G the figure was 0.00346; with C82U A120U A145G C150G C169G U176C, 0.00499.
The figure for C82U A120U A145G C150G C169G U176A is 0.00758; for C82U A120U A145U C150G C169U U176C it is 0.00297.
Consider C82U A120U A145U C150G C169U U176G, for which the reverse-splicing fitness was 0.00186.
With C82U A120U A145U C150G C169U U176A the figure was 0.00257.
With C82U A120U A145C C150G U176C the figure was 0.00864; with C82U A120U A145C C150G U176A, 0.0055; with C82U A120U A145C C150G U176G, 0.00242.
The figure for C82U A120U A145C C169U U176A is 0.00253; for C82U A120U A145C C169U U176C it is 0.00289; for C82U A120U A145C C169U U176G it is 0.00172.
In the case of C82U A120U A145U C150G C169A, the reverse-splicing fitness was 0.00259.
With C82U A120U A145U C150G C169U the figure was 0.00244.
With C82U A120U A145U C150G C169G the figure was 0.00248.
The figure for C82U A120U A145G C169A U176C is 0.00239; for C82U A120U A145G C169A U176A it is 0.0025.
For the variant C82U A120U A145G C169A U176G, the reverse-splicing fitness is 0.00152.
With C82U A120U A145U C150G C169G U176G the figure was 0.00173.
The figure for C82U A120U A145U C150G C169G U176A is 0.00198; for C82U A120U A145U C150G C169G U176C it is 0.00209; for C82U A120U A145C C169G U176G it is 0.00143.
The figure for C82U A120U A145C C169G U176C is 0.00167; for C82U A120U A145C C169G U176A it is 0.00282.
Take C82U A120U A145U C150U C169A U176A: the reverse-splicing fitness was found to be 0.00262.
With C82U A120U A145U C150U C169A U176G the figure was 0.0019.
With C82U A120U A145U C150U C169A U176C the figure was 0.00256; with C82U A120U A145C C150G C169U U176G, 0.00191.
Regarding C82U A120U A145C C150G C169U U176A, the reverse-splicing fitness worked out at 0.00247.
With C82U A120U A145C C150G C169U U176C the figure was 0.00224; with C82U A120U A145C C150U C169A U176G, 0.00165.
For C82U A120U A145C C150U C169A U176A, the reverse-splicing fitness stood at 0.00242.
In the case of C82U A120U A145C C150U C169A U176C, the reverse-splicing fitness amounted to 0.00189.
C82U A120U A145U C150U C169U U176G: the reverse-splicing fitness turned out to be 0.00217.
The figure for C82U A120U A145U C150U C169U U176A is 0.0028; for C82U A120U A145U C150U C169U U176C it is 0.00368.
The figure for C82U A120U A145G C150G C169U U176C is 0.00545; for C82U A120U A145G C150G C169U U176A it is 0.00708; for C82U A120U A145G C150G C169U U176G it is 0.00348.
As to C82U A120U A145G, the reverse-splicing fitness came out at 0.167.
The figure for C82U A120U A145U is 0.181; for C82U A120U A145C C150U C169U U176G it is 0.0015.
With C82U A120U A145C C150U C169U U176C the figure was 0.00187; with C82U A120U A145C C150U C169U U176A, 0.00232; with C82U A120U A145G C150A C169G, 0.00351.
The figure for C82U A120U A145G C150A C169A is 0.00483; for C82U A120U A145G C150A C169U it is 0.00334; for C82U A120U A145C C150A C169G U176A it is 0.00223.
In the case of C82U A120U A145C C150A C169G U176C, the reverse-splicing fitness was determined as 0.00196.
With C82U A120U A145C C150A C169G U176G, the reverse-splicing fitness was 0.00161.
With C82U A120U A145C C150U C169G U176G the figure was 0.00153; with C82U A120U A145C C150U C169G U176A, 0.00259; with C82U A120U A145C C150U C169G U176C, 0.00188.
On to C82U A120U A145U C150G, for which the reverse-splicing fitness turned out to be 0.0184.
With C82U A120U A145U C150A the figure was 0.0156; with C82U A120U A145U C150U, 0.106.
For C82U A120U A145U C150A C169A, the reverse-splicing fitness was found to be 0.00179.
With C82U A120U A145U C150A C169U the figure was 0.0022.
With C82U A120U A145U C150A C169G, the reverse-splicing fitness stood at 0.00199.
